Where a chain is given by its changes, count along the chain named.

The labels stand for the following.
B1: Dreieckhorn (antibody, V domains shown)
VH: QVQLVQSGAEVKKPGASVKVSCKASGYTFTSYNMHWVRQAPGQGLEWMGVIYSGQGDTSYNQKFKGRVTMTTDTSTSTAYMELRSLTSDDTAVYYCARERDTRFGNWGQGTLVTVSA
VL: EIVLTQSPSSLSASVGDRVTITCRASESVDIYGESFMHWYQQKPGKAPKLLIYSASNLESGVPSRFSGSGSGTDFTLTISSLQPEDFATYYCQQNREEPYTFGQGTKLEIK
notes: IgG; also called VH1.4/VL1.32
B2: Piz Morteratsch (antibody, V domains shown)
VH: B1 VH
VL: B1 VL with S54Q
notes: IgG; also called VH1.4/VL1.33
B3: Nesthorn (antibody, V domains shown)
VH: B1 VH
VL: B1 VL with S54E
notes: IgG; also called VH1.4/VL1.31
B4: Balmhorn (antibody, V domains shown)
VH: B1 VH
VL: EIVLTQSPSSLSASVGDRVTITCRASESVDIYGESFMHWYQQKPGKAPKLLIYLASNLESGVPSRFSGSGSGTDFTLTISSLQPEDFATYYCQQNKEEPYTFGQGTKLEIKR
notes: IgG; also called VH1.4/VL1.19
B5: Piz Palü (antibody, V domains shown)
VH: B1 VH
VL: B1 VL with S54H
notes: IgG; also called VH1.4/VL1.30
B6: Piz Bernina (antibody, V domains shown)
VH: B1 VH with Q55N
VL: B4 VL with K96N
notes: IgG; also called VH1/VL1.17
B7: Allalinhorn (antibody, V domains shown)
VH: B1 VH with Q55N
VL: B4 VL
notes: IgG; also called VH1/VL1.19; Allaninhorn
B8: Bietschhorn (antibody, V domains shown)
VH: B1 VH with Q55N
VL: B4 VL with K96R
notes: IgG; also called VH1/VL1.29
B9: Piz Roseg (antibody, V domains shown)
VH: B1 VH with Q55N
VL: B4 VL with E34S, L54K
notes: IgG; also called VH1/VL1.28
B10: Piz Argient (antibody, V domains shown)
VH: B1 VH with Q55N
VL: B4 VL with E34H
notes: IgG; also called VH1/VL1.27

One test deals with T1, human recombinant CD117 (c-Kit) from Sino Biological (Catalog No. 11996-H08H) (human, UniProt P10721 26-524).
T1 construct: also called soluble antigen
T1 sequence (P10721 26-524 limits assumed): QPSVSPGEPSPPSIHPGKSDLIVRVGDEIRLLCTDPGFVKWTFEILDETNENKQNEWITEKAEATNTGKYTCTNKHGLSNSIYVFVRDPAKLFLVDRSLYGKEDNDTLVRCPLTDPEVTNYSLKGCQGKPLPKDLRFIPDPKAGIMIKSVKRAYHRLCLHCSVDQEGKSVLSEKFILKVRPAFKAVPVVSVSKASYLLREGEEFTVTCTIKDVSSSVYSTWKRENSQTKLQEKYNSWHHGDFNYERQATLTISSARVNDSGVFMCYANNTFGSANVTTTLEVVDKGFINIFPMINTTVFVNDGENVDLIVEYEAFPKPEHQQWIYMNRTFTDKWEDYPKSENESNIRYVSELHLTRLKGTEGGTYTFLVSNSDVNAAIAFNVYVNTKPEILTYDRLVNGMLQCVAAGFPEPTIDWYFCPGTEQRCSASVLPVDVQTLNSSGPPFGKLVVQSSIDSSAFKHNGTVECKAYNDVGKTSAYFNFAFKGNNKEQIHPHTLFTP
In words: BLI Octet, set-up as in Example 2. As for the experimental part:
IgG antibodies were immobilized on biosensors using suitable capture surfaces and binding of soluble antigen to immobilized antibodies was monitored by BLI (Octet). The resulting sensorgrams were analyzed using the supplied software (Fortebio). As antigen human recombinant CD117 (c-Kit) from Sino Biological was used (Catalog No. 11996-H08H, Lot #LC14SE0812). As a pre-experiment a series of experiments was performed to optimize assay parameters. The following parameters were selected:
(§1) In the main experiment kinetic assays were performed by first capturing IgG using anti-human Fc biosensors. The mAb capture biosensors were then submerged in wells containing different concentrations of antigen (association stage) followed by a dissociation step in running buffer. To allow for double reference correction, IgG-captured sensors were dipped into wells containing only buffer and blank sensors were also dipped into wells containing the antigen. This referencing provided a means of compensating for both the natural dissociation of the capture IgG and non-specific binding of the antigen to the sensor surface. Steps were performed at 25° C. at a constant shaking of 1000 rpm. New sensors were used for each sample. Dissociation rate constants (Kd) were calculated using the ForteBio Data Analysis software. All consumables used were those recommended by ForteBio.
Consider B1, for which the binding result is given as “binds”.

For the molecule B2, the binding result is reported as “binds”.

With B3, the binding result is reported as “binds”.

As to B4, the binding result is recorded as “binds”.

For the molecule B5, the binding result is listed as “binds”.

A further test deals with T1, human recombinant CD117 (c-Kit) from …. Briefly: BLI Octet, set-up as in Example 2. The source holds these as a separate data set. As for the experimental part:
as §1
All samples were diluted in freshly prepared running buffer. Antibody variants were immobilized onto the surface of a series of biosensors using the capture methods described. Antigen was passed over the surface to generate a binding response. Binding data for the IgG:antigen interactions were collected at 25° C. on the biosensors. A dilution series of the antigen was used in the association step, in order to fit results globally and get the best values for ka, kd, and KD. The response data for the binding of antigen to the surface immobilized IgG were fitted to a 1:1 binding model. HC0 LC0 refers to murine SR-1.
For B6, the Kd was 0.19 nM.

As for B7, the dissociation constant (Kd) worked out at 0.45 nM.

Regarding B8, the Kd was 1.1 nM.

Regarding B9, the Kd amounted to 8.3 nM.

Consider B10, for which the Kd turned out to be 3.3 nM.

In the next test the target is T2, CD117 on wild-type cells (TF-1 cells, HSPCs, HSCs) (human, UniProt P10721 26-976). Briefly: cell-based or functional assay.
T2 sequence (P10721 26-976 limits assumed): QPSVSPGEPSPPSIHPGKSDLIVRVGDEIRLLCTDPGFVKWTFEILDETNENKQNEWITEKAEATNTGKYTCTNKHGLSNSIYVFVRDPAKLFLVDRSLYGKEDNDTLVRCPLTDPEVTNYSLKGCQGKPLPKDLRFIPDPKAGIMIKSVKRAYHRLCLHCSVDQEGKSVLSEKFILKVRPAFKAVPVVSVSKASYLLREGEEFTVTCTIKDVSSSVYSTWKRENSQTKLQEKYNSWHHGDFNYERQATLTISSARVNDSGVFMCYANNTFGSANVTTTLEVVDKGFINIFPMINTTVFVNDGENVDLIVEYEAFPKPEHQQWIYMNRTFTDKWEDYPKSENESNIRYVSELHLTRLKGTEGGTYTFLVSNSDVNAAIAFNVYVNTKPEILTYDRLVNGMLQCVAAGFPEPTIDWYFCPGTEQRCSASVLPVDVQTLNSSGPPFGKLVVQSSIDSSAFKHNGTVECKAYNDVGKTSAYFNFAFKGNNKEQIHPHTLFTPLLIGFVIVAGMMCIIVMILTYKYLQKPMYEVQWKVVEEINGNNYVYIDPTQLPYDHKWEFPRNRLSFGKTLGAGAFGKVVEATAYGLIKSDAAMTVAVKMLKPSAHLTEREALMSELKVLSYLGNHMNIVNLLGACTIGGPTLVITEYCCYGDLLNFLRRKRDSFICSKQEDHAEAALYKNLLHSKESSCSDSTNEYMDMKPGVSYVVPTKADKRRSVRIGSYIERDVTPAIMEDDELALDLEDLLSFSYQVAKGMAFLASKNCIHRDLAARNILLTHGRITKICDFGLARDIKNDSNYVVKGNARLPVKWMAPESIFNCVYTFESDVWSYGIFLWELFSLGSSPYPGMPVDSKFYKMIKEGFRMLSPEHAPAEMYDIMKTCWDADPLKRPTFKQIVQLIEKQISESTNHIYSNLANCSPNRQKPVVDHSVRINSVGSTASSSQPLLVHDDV
Take B6: the “IC50, inhibition of SCF-dependent proliferation of TF-1 cells (CellTiter-Glo), Average” value (from here on “IC50, inhibition … Average”) came out at 0.0176 µg/mL; the “IC50, inhibition of SCF-dependent proliferation of TF-1 cells (CellTiter-Glo), Experiment #1” value (“IC50, inhibition … Experiment #1” for short) was 0.0122 µg/mL; the “IC50, inhibition of SCF-dependent proliferation of TF-1 cells (CellTiter-Glo), Experiment #2” value (shortened to “IC50, inhibition … Experiment #2”) came out at 0.0231 µg/mL.

As to B7, the “IC50, inhibition … Average” value is 0.0441 µg/mL; the “IC50, inhibition … Experiment #1” value worked out at 0.0415 µg/mL; the “IC50, inhibition … Experiment #2” value worked out at 0.0467 µg/mL.

Consider B8, for which the “IC50, inhibition … Average” value stood at 0.151 µg/mL; the “IC50, inhibition … Experiment #1” value came out at 0.0455 µg/mL; the “IC50, inhibition … Experiment #2” value worked out at 0.256 µg/mL.

In the case of B9, the “IC50, inhibition … Average” value was over 0.5 µg/mL; the “IC50, inhibition … Experiment #1” value was over 0.5 µg/mL; the “IC50, inhibition … Experiment #2” value is over 0.5 µg/mL.

As for B10, the “IC50, inhibition … Average” value is over 0.5 µg/mL; the “IC50, inhibition … Experiment #1” value is over 0.5 µg/mL; the “IC50, inhibition … Experiment #2” value is over 0.5 µg/mL.

The target of another test is T2, CD117 on wild-type cells (TF-1 cells, …). In words: flow cytometry on TF-1 wild-type cells, Fc receptors blocked, goat anti-human IgG Alexa Fluor 488 as secondary antibody. As for the experimental part:
Binding of the antibodies of the present disclosure to CD117 on TF-1 cells was measured. TF-1 wild-type cells were seeded at a concentration of 100,000 cells/well. A Fc receptor blocking was performed using 25 μL TruStain FcX (BioLegend) for 15 min. Next cells are treated with various concentrations of the antibodies to be tested (0.0001-5 μg/ml). After additional 30 min cells were washed, then a secondary antibody was added to the cells (IgG (H+L) Cross-Adsorbed Goat anti-Human, Alexa Fluor® 488). After 30 min and two additional wash steps a live dead staining via 7AAD (7-aminoactinomycin D) was performed using 0.5 μg/mL 7AAD for 10 min before analyzing cells in a flow cytometer.
On to B6, for which the “EC50 (read off the curve)” value is about 0.02 µg/mL.

In the case of B7, the “EC50 (read off the curve)” value is about 0.02 µg/mL.

On to B8, for which the “EC50 (read off the curve)” value was about 0.04 µg/mL.

Turning to B9, the “EC50 (read off the curve)” value is about 0.2 µg/mL.

As to B10, the “EC50 (read off the curve)” value is about 0.1 µg/mL.

The target is the same in another test. In words: cell-based or functional assay. This is another data set of the same source.
In the case of B6, the “IC50, inhibition of SCF-dependent proliferation of CD34-positive HSPCs (CellTiter-Glo)” value was found to be 0.00521 µg/mL.

For B7, the “IC50, inhibition of SCF-dependent proliferation of CD34-positive HSPCs (CellTiter-Glo)” value turned out to be 0.0313 µg/mL.

Take B8: the “IC50, inhibition of SCF-dependent proliferation of CD34-positive HSPCs (CellTiter-Glo)” value worked out at 0.0842 µg/mL.

Consider B9, for which the “IC50, inhibition of SCF-dependent proliferation of CD34-positive HSPCs (CellTiter-Glo)” value is over 10 µg/mL.

B10: the “IC50, inhibition of SCF-dependent proliferation of CD34-positive HSPCs (CellTiter-Glo)” value was over 10 µg/mL.

Source of the values: patent publication US20260258124A1 (CIMEIO THERAPEUTICS, published 2026).
